Substrate in data set [1]: ClCCCl
Nature of the data set: ITC initial rates, steady-state fit with substrate inhibition. Type of data set: biochemical, Xanthobacter autotrophicus. The conditions noted are these: 100 mM glycine buffer, pH 8.6, 15 °C.

Substrate in data set [2]: ClCCCl
Nature of the data set: ITC initial rates, steady-state fit. Type of data set: biochemical, Xanthobacter autotrophicus. The conditions noted are these: 100 mM glycine buffer, pH 8.6, 15 °C.

Numbering of substitutions follows the chain as printed. Names and notes keep the numbering of the source.

B1: haloalkane dehalogenase (DhlA) (Xanthobacter autotrophicus) (protein)
chain: MINAIRTPDQRFSNLDQYPFSPNYLDDLPGYPGLRAHYLDEGNSDAEDVFLCLHGEPTWSYLYRKMIPVFAESGARVIAPDFFGFGKSDKPVDEEDYTFEFHRNFLLALIERLDLRNITLVVQDWGGFLGLTLPMADPSRFKRLIIMNACLMTDPVTQPAFSAFVTQPADGFTAWKYDLVTPSDLRLDQFMKRWAPTLTEAEASAYAAPFPDTSYQAGVRKFPKMVAQRDQACIDISTEAISFWQNDWNGQTFMAIGMKDKLLGPDVMYPMKALINGCPEPLEIADAGHFVQEFGEQVAREALKHFAETE
Broadly, the Km is the substrate concentration at which the rate is half of its maximum. As a reminder, the kcat is the number of substrate molecules converted per active site and unit of time at saturation. As for B1, in data set [1], the Km worked out at 0.06 ± 0.01 mM and the kcat is 0.27 ± 0.01 s⁻¹.

B2: haloalkane dehalogenase (DhlA) (Xanthobacter autotrophicus; F128L/L262I) (protein)
chain: B1 chain with F128L, L262I
As to B2, in data set [1], the Km came to 1.08 ± 0.10 mM and the turnover number (kcat) came out at 0.36 ± 0.02 s⁻¹.

B3: haloalkane dehalogenase (DhlA) (Xanthobacter autotrophicus; F128L/L262V) (protein)
chain: B1 chain with F128L, L262V
For the protein B3, in data set [2], the Km worked out at 1.04 ± 0.06 mM and the kcat came out at 0.18 ± 0.01 s⁻¹.

B4: haloalkane dehalogenase (DhlA) (Xanthobacter autotrophicus; L262V) (protein)
chain: B1 chain with L262V
With B4, in data set [1], the Michaelis constant (Km) turned out to be 0.25 ± 0.03 mM and the kcat was 0.25 ± 0.01 s⁻¹.

B5: haloalkane dehalogenase (DhlA) (Xanthobacter autotrophicus; F128L) (protein)
chain: B1 chain with F128L
Regarding B5, in data set [1], the Km came to 0.70 ± 0.03 mM and the kcat was found to be 0.05 ± 0.01 s⁻¹.
